The labels stand for the following.
B1: B13002 (Fab, V domains shown)
VH: EVQLVESGGGLVQPGGSLRLSCAASGYTFSNYGIHWVRQAPGKGLEWIGWIYPSGGGTKYAQKFQGRVTISRDNSKNTLYLQLNSLRAEDTAVYYCAREGGGYGYALDYWGQGTLVTVSS
VL: DIQLTQSPSSLSASVGDRVTITCRASQGVSSYLAWYQQKPGKAPKLLIYDASNLETGVPSRFSGSGSGTDFTLTISSLQPEDFATYYCQQYDAWPYTFGQGTKVEIKR
notes: Fab from E. coli
B2: B14622 (Fab, V domains shown)
VH: EVQLVESGGGLVQPGGSLRLSCAASGYTFSNYGIHWVRQAPGKGLEWIGWIYPSGGGTKYAQKFQGRVTISRDNSKNTLYLQLNSLRAEDTAVYYCAREGGGYGYALDYWGQGTLVTVSS
VL: DIQLTQSPSSLSASVGDRVTITCRASQSVDFYGKSFLDWYQQKPGKAPKLLIYDASNRATGIPSRFSGSGSGTDFTLTISSLQPEDFATYYCQQYDSWPYTFGQGTKVEIKR
notes: Fab from E. coli
B3: B14674 (Fab, V domains shown)
VH: EVQLVESGGGLVQPGGSLRLSCAASGYTFSNYGIHWVRQAPGKGLEWIGWIYPSGGGTKYAQKFQGRVTISRDNSKNTLYLQLNSLRAEDTAVYYCAREGGGYGYALDYWGQGTLVTVSS
VL: DIQLTQSPSSLSASVGDRVTITCRASQSIEKWLAWYQQKPGKAPKLLIYDASSLESGVPSRFSGSGSGTDFTLTISSLQPEDFATYYCQQYDAWPYTFGQGTKVEIKR
notes: Fab from E. coli
B4: B14652 (Fab, V domains shown)
VH: EVQLVESGGGLVQPGGSLRLSCAASGYTFSNYGIHWVRQAPGKGLEWIGWIYPSGGGTKYAQKFQGRVTISRDNSKNTLYLQLNSLRAEDTAVYYCAREGGGYGYALDYWGQGTLVTVSS
VL: DIQLTQSPSSLSASVGDRVTITCRASQGVSPWLAWYQQKPGKAPKLLIYDASSLESGVPSRFSGSGSGTDFTLTISSLQPEDFATYYCQQYDAWPYTFGQGTKVEIKR
notes: Fab from E. coli
B5: B13004 (Fab, V domains shown)
VH: EVQLVESGGGLVQPGGSLRLSCAASGYTFSNYGIHWVRQAPGKGLEWIGWIYPSGGGTKYAQKFQGRVTISRDNSKNTLYLQLNSLRAEDTAVYYCAREGGGYGYALDYWGQGTLVTVSS
VL: DIQLTQSPSSLSASVGDRVTITCRASQGISPWLAWYQQKPGKAPKLLIYDASNRATGIPSRFSGSGSGTDFTLTISSLQPEDFATYYCQQYDSWPYTFGQGTKVEIKR
notes: Fab from E. coli
B6: B14644 (Fab, V domains shown)
VH: EVQLVESGGGLVQPGGSLRLSCAASGYTFSNYGIHWVRQAPGKGLEWIGWIYPSGGGTKYAQKFQGRVTISRDNSKNTLYLQLNSLRAEDTAVYYCAREGGGYGYALDYWGQGTLVTVSS
VL: DIQLTQSPSSLSASVGDRVTITCRASESVDFYGKSFLAWYQQKPGKAPKLLIYDASNRATGIPSRFSGSGSGTDFTLTISSLQPEDFATYYCQQYDYWPYTFGQGTKVEIKR
notes: Fab from E. coli
B7: B14634 (Fab, V domains shown)
VH: EVQLVESGGGLVQPGGSLRLSCAASGYTFSNYGIHWVRQAPGKGLEWIGWIYPSGGGTKYAQKFQGRVTISRDNSKNTLYLQLNSLRAEDTAVYYCAREGGGYGYALDYWGQGTLVTVSS
VL: DIQLTQSPSSLSASVGDRVTITCRASQSVSPYLAWYQQKPGKAPKLLIYDASNLETGVPSRFSGSGSGTDFTLTISSLQPEDFATYYCQQYDAWPYTFGQGTKVEIKR
notes: Fab from E. coli
B8: B14614 (Fab, V domains shown)
VH: EVQLVESGGGLVQPGGSLRLSCAASGYTFSNYGIHWVRQAPGKGLEWIGWIYPSGGGTKYAQKFQGRVTISRDNSKNTLYLQLNSLRAEDTAVYYCAREGGGYGYALDYWGQGTLVTVSS
VL: DIQLTQSPSSLSASVGDRVTITCRASESVDFYGKSFLDWYQQKPGKAPKLLIYDASNRATGIPSRFSGSGSGTDFTLTISSLQPEDFATYYCQQYDSWPYTFGQGTKVEIKR
notes: Fab from E. coli
B9: B14654 (Fab, V domains shown)
VH: EVQLVESGGGLVQPGGSLRLSCAASGYTFSNYGIHWVRQAPGKGLEWIGWIYPSGGGTKYAQKFQGRVTISRDNSKNTLYLQLNSLRAEDTAVYYCAREGGGYGYALDYWGQGTLVTVSS
VL: DIQLTQSPSSLSASVGDRVTITCRASQSVSPYLAWYQQKPGKAPKLLIYDASNRATGIPSRFSGSGSGTDFTLTISSLQPEDFATYYCQQYDAWPYTFGQGTKVEIKR
notes: Fab from E. coli
B10: B14615 (Fab, V domains shown)
VH: EVQLVESGGGLVQPGGSLRLSCAASGYTFSNYGIHWVRQAPGKGLEWIGWIYPSGGGTKYAQKFQGRVTISRDNSKNTLYLQLNSLRAEDTAVYYCAREGGGYGYALDYWGQGTLVTVSS
VL: DIQLTQSPSSLSASVGDRVTITCRASQSVDFYGKSFLAWYQQKPGKAPKLLIYDASSLESGVPSRFSGSGSGTDFTLTISSLQPEDFATYYCQQYDHWPYTFGQGTKVEIKR
notes: Fab from E. coli
B11: B14633 (Fab, V domains shown)
VH: EVQLVESGGGLVQPGGSLRLSCAASGYTFSNYGIHWVRQAPGKGLEWIGWIYPSGGGTKYAQKFQGRVTISRDNSKNTLYLQLNSLRAEDTAVYYCAREGGGYGYALDYWGQGTLVTVSS
VL: DIQLTQSPSSLSASVGDRVTITCRASESVDFHGISFLAWYQQKPGKAPKLLIYDASNRATGIPSRFSGSGSGTDFTLTISSLQPEDFATYYCQQYDHWPYTFGQGTKVEIKR
notes: Fab from E. coli
B12: B14645 (Fab, V domains shown)
VH: EVQLVESGGGLVQPGGSLRLSCAASGYTFSNYGIHWVRQAPGKGLEWIGWIYPSGGGTKYAQKFQGRVTISRDNSKNTLYLQLNSLRAEDTAVYYCAREGGGYGYALDYWGQGTLVTVSS
VL: DIQLTQSPSSLSASVGDRVTITCRASQSVDFYGKSFLDWYQQKPGKAPKLLIYDASNLETGVPSRFSGSGSGTDFTLTISSLQPEDFATYYCQQYDAWPYTFGQGTKVEIKR
notes: Fab from E. coli
B13: B14631 (Fab, V domains shown)
VH: EVQLVESGGGLVQPGGSLRLSCAASGYTFSNYGIHWVRQAPGKGLEWIGWIYPSGGGTKYAQKFQGRVTISRDNSKNTLYLQLNSLRAEDTAVYYCAREGGGYGYALDYWGQGTLVTVSS
VL: DIQLTQSPSSLSASVGDRVTITCRASESVDFFGKSFLAWYQQKPGKAPKLLIYDASNLETGVPSRFSGSGSGTDFTLTISSLQPEDFATYYCQQYDHWPYTFGQGTKVEIKR
notes: Fab from E. coli
B14: B14617 (Fab, V domains shown)
VH: EVQLVESGGGLVQPGGSLRLSCAASGYTFSNYGIHWVRQAPGKGLEWIGWIYPSGGGTKYAQKFQGRVTISRDNSKNTLYLQLNSLRAEDTAVYYCAREGGGYGYALDYWGQGTLVTVSS
VL: DIQLTQSPSSLSASVGDRVTITCRASESVDFFGKSFLAWYQQKPGKAPKLLIYDASSLESGVPSRFSGSGSGTDFTLTISSLQPEDFATYYCQQYDSWPYTFGQGTKVEIKR
notes: Fab from E. coli
B15: B14658 (Fab, V domains shown)
VH: EVQLVESGGGLVQPGGSLRLSCAASGYTFSNYGIHWVRQAPGKGLEWIGWIYPSGGGTKYAQKFQGRVTISRDNSKNTLYLQLNSLRAEDTAVYYCAREGGGYGYALDYWGQGTLVTVSS
VL: DIQLTQSPSSLSASVGDRVTITCRASQSVDFHGKSFLDWYQQKPGKAPKLLIYDASNRATGIPSRFSGSGSGTDFTLTISSLQPEDFATYYCQQYDSWPYTFGQGTKVEIKR
notes: Fab from E. coli
B16: B14642 (Fab, V domains shown)
VH: EVQLVESGGGLVQPGGSLRLSCAASGYTFSNYGIHWVRQAPGKGLEWIGWIYPSGGGTKYAQKFQGRVTISRDNSKNTLYLQLNSLRAEDTAVYYCAREGGGYGYALDYWGQGTLVTVSS
VL: DIQLTQSPSSLSASVGDRVTITCRASQSVDFYGKSFLAWYQQKPGKAPKLLIYDASSLESGVPSRFSGSGSGTDFTLTISSLQPEDFATYYCQQYDAWPYTFGQGTKVEIKR
notes: Fab from E. coli
B17: B13005 (Fab, V domains shown)
VH: EVQLVESGGGLVQPGGSLRLSCAASGYTFSNYGIHWVRQAPGKGLEWIGWIYPSGGGTKYAQKFQGRVTISRDNSKNTLYLQLNSLRAEDTAVYYCAREGGGYGYALDYWGQGTLVTVSS
VL: DIQLTQSPSSLSASVGDRVTITCRASQSVSSYLAWYQQKPGKAPKLLIYDASNLETGVPSRFSGSGSGTDFTLTISSLQPEDFATYYCQQYDAWPYTFGQGTKVEIKR
notes: Fab from E. coli
B18: B14033 (Fab, V domains shown)
VH: EVQLVESGGGLVQPGGSLRLSCAASGYTFSNYGIHWVRQAPGKGLEWIGWIYPSGGGTKYAQKFQGRVTISRDNSKNTLYLQLNSLRAEDTAVYYCAREGGGYGYALDYWGQGTLVTVSS
VL: DIQLTQSPSSLSASVGDRVTITCRASQGIGSFLAWYQQKPGKAPKLLIYDASSLESGVPSRFSGSGSGTDFTLTISSLQPEDFATYYCQQYDYWPYTFGQGTKVEIKR
notes: Fab from E. coli
B19: B14627 (Fab, V domains shown)
VH: EVQLVESGGGLVQPGGSLRLSCAASGYTFSNYGIHWVRQAPGKGLEWIGWIYPSGGGTKYAQKFQGRVTISRDNSKNTLYLQLNSLRAEDTAVYYCAREGGGYGYALDYWGQGTLVTVSS
VL: DIQLTQSPSSLSASVGDRVTITCRASQSVSSWLAWYQQKPGKAPKLLIYDASSLESGVPSRFSGSGSGTDFTLTISSLQPEDFATYYCQQYDSWPYTFGQGTKVEIKR
notes: Fab from E. coli
B20: B14651 (Fab, V domains shown)
VH: EVQLVESGGGLVQPGGSLRLSCAASGYTFSNYGIHWVRQAPGKGLEWIGWIYPSGGGTKYAQKFQGRVTISRDNSKNTLYLQLNSLRAEDTAVYYCAREGGGYGYALDYWGQGTLVTVSS
VL: DIQLTQSPSSLSASVGDRVTITCRASESVDFHGKSFLAWYQQKPGKAPKLLIYDASNRATGIPSRFSGSGSGTDFTLTISSLQPEDFATYYCQQYDHWPYTFGQGTKVEIKR
notes: Fab from E. coli
B21: B14650 (Fab, V domains shown)
VH: EVQLVESGGGLVQPGGSLRLSCAASGYTFSNYGIHWVRQAPGKGLEWIGWIYPSGGGTKYAQKFQGRVTISRDNSKNTLYLQLNSLRAEDTAVYYCAREGGGYGYALDYWGQGTLVTVSS
VL: DIQLTQSPSSLSASVGDRVTITCRASESVDFYGKSFLDWYQQKPGKAPKLLIYDASNRATGIPSRFSGSGSGTDFTLTISSLQPEDFATYYCQQYDHWPYTFGQGTKVEIKR
notes: Fab from E. coli

T1 sequence (Q9NZQ7 19-239 limits assumed): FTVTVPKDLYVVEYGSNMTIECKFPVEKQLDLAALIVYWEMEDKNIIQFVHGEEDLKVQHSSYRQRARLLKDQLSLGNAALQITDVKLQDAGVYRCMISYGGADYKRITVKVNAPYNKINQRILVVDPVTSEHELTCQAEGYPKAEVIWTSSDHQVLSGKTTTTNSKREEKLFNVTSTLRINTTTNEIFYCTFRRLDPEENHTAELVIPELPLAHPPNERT

The test concerns the target T1, human PD-L1-Fc fusion protein (Sino Biological Cat #10084-H02H) (human, UniProt Q9NZQ7 19-239).
T1 construct: bought; not shown: Fc part of the bought fusion
Kind of test: BLI (ForteBio), PD-L1-Fc on AHC sensor, Fab in solution.
B1: the Kd (in general, the equilibrium constant for the complex coming apart) turned out to be 0.251 nM.
The molecule B2 yielded a Kd of 0.274 nM.
Take B3: the Kd is 0.502 nM.
The same measure for B4: 0.294 nM.
In turn, B5 returned a Kd of 0.3 nM.
For the molecule B6, binding was put at a Kd of 0.248 nM.
As for B7, the figure is 0.207 nM.
On to B8, for which the Kd amounted to 0.353 nM.
Turning to B9, the equilibrium dissociation constant (Kd) is 0.232 nM.
As for B10, the dissociation constant (Kd) worked out at 0.228 nM.
As to B11, the dissociation constant (Kd) turned out to be 0.322 nM.
Molecule B12 yielded a dissociation constant (Kd) of 0.296 nM.
As to B13, binding was put at a Kd of 0.183 nM.
As to B14, the dissociation constant Kd was determined as 0.288 nM.
The molecule B15 displayed a dissociation constant (Kd) of 0.142 nM.
B16 yielded a dissociation constant (Kd) of 0.189 nM.
Take B17: the affinity, expressed as Kd, was 0.346 nM.
The same measure for B18: 0.875 nM; for B19: 0.182 nM; for B20: 0.301 nM.
Molecule B21 yielded a Kd of 0.357 nM.

Values taken from US20210122824A1 (ADAGENE, published 2021).
